Results taken from patent US20230035659A1, “Compositions and Methods for TTR Gene Editing and Treating ATTR Amyloidosis Comprising a Corticosteroid or Use Thereof” (Intellia Therapeutics, Inc., priority 2019, published 2023).
Strand notation (5' to 3'): a small letter for the sugar, then the base; units joined by * are phosphorothioate-linked, units joined directly phosphodiester-linked; [ ] holds rarer units or linkages, { } end groups; capitals alone tell only the bases. m = 2'-O-methyl; r = 2'-OH (RNA)

B1: G000499: TTR sgRNA modified sequence, Human, SEQ ID NO: 106; guide sequence of CR005303 (nucleic acid)
guide: mU*mG*mA*rArUrCrCrArArGrUrGrUrCrCrUrCrUrGrArGrUrUrUrUrArGrAmGmCmUmAmGmAmAmAmUmAmGmCrArArGrUrUrArArArArUrArArGrGrCrUrArGrUrCrCrGrUrUrArUrCrAmAmCmUmUmGmAmAmAmAmAmGmUmGmGmCmAmCmCmGmAmGmUmCmGmGmUmGmCmU*mU*mU*mU
B2: G000488: TTR sgRNA modified sequence, Human, SEQ ID NO: 95; guide sequence of CR003346 (nucleic acid)
guide: mA*mA*mA*rGrUrUrCrUrArGrArUrGrCrUrGrUrCrCrGrGrUrUrUrUrArGrAmGmCmUmAmGmAmAmAmUmAmGmCrArArGrUrUrArArArArUrArArGrGrCrUrArGrUrCrCrGrUrUrArUrCrAmAmCmUmUmGmAmAmAmAmAmGmUmGmGmCmAmCmCmGmAmGmUmCmGmGmUmGmCmU*mU*mU*mU
B3: G000493: TTR sgRNA modified sequence, Human, SEQ ID NO: 100; guide sequence of CR003368 (nucleic acid)
guide: mA*mA*mG*rUrGrCrCrUrUrCrCrArGrUrArArGrArUrUrGrUrUrUrUrArGrAmGmCmUmAmGmAmAmAmUmAmGmCrArArGrUrUrArArArArUrArArGrGrCrUrArGrUrCrCrGrUrUrArUrCrAmAmCmUmUmGmAmAmAmAmAmGmUmGmGmCmAmCmCmGmAmGmUmCmGmGmUmGmCmU*mU*mU*mU
B4: G000490: TTR sgRNA modified sequence, Human, SEQ ID NO: 97; guide sequence of CR003366 (nucleic acid)
guide: mA*mA*mA*rUrArGrArCrArCrCrArArArUrCrUrUrArCrGrUrUrUrUrArGrAmGmCmUmAmGmAmAmAmUmAmGmCrArArGrUrUrArArArArUrArArGrGrCrUrArGrUrCrCrGrUrUrArUrCrAmAmCmUmUmGmAmAmAmAmAmGmUmGmGmCmAmCmCmGmAmGmUmCmGmGmUmGmCmU*mU*mU*mU
B5: G000489: TTR sgRNA modified sequence, Human, SEQ ID NO: 96; guide sequence of CR003344 (nucleic acid)
guide: mU*mU*mU*rGrArCrCrArUrCrArGrArGrGrArCrArCrUrGrUrUrUrUrArGrAmGmCmUmAmGmAmAmAmUmAmGmCrArArGrUrUrArArArArUrArArGrGrCrUrArGrUrCrCrGrUrUrArUrCrAmAmCmUmUmGmAmAmAmAmAmGmUmGmGmCmAmCmCmGmAmGmUmCmGmGmUmGmCmU*mU*mU*mU
B6: G000500: TTR sgRNA modified sequence, Human, SEQ ID NO: 107; guide sequence of CR003337 (nucleic acid)
guide: mC*mC*mA*rGrUrCrCrArGrCrArArGrGrCrArGrArGrGrGrUrUrUrUrArGrAmGmCmUmAmGmAmAmAmUmAmGmCrArArGrUrUrArArArArUrArArGrGrCrUrArGrUrCrCrGrUrUrArUrCrAmAmCmUmUmGmAmAmAmAmAmGmUmGmGmCmAmCmCmGmAmGmUmCmGmGmUmGmCmU*mU*mU*mU
B7: G000480: TTR sgRNA modified sequence, Human, SEQ ID NO: 87; guide sequence of CR003353 (nucleic acid)
guide: mA*mA*mA*rGrGrCrUrGrCrUrGrArUrGrArCrArCrCrUrGrUrUrUrUrArGrAmGmCmUmAmGmAmAmAmUmAmGmCrArArGrUrUrArArArArUrArArGrGrCrUrArGrUrCrCrGrUrUrArUrCrAmAmCmUmUmGmAmAmAmAmAmGmUmGmGmCmAmCmCmGmAmGmUmCmGmGmUmGmCmU*mU*mU*mU
B8: G000502: TTR Cyno specific sgRNA modified sequence, SEQ ID NO: 114; guide sequence of CR000689; cross homologous between mouse and cyno (nucleic acid)
guide: mA*mC*mA*rCrArArArUrArCrCrArGrUrCrCrArGrCrGrGrUrUrUrUrArGrAmGmCmUmAmGmAmAmAmUmAmGmCrArArGrUrUrArArArArUrArArGrGrCrUrArGrUrCrCrGrUrUrArUrCrAmAmCmUmUmGmAmAmAmAmAmGmUmGmGmCmAmCmCmGmAmGmUmCmGmGmUmGmCmU*mU*mU*mU
B9: G000482: TTR sgRNA modified sequence, Human, SEQ ID NO: 89; guide sequence of CR003365 (nucleic acid)
guide: mU*mG*mU*rArGrArArGrGrGrArUrArUrArCrArArArGrGrUrUrUrUrArGrAmGmCmUmAmGmAmAmAmUmAmGmCrArArGrUrUrArArArArUrArArGrGrCrUrArGrUrCrCrGrUrUrArUrCrAmAmCmUmUmGmAmAmAmAmAmGmUmGmGmCmAmCmCmGmAmGmUmCmGmGmUmGmCmU*mU*mU*mU
B10: G000570: TTR sgRNA modified sequence, Human, SEQ ID NO: 111; guide sequence of CR003347 (nucleic acid)
guide: mC*mA*mU*rUrGrArUrGrGrCrArGrGrArCrUrGrCrCrUrGrUrUrUrUrArGrAmGmCmUmAmGmAmAmAmUmAmGmCrArArGrUrUrArArArArUrArArGrGrCrUrArGrUrCrCrGrUrUrArUrCrAmAmCmUmUmGmAmAmAmAmAmGmUmGmGmCmAmCmCmGmAmGmUmCmGmGmUmGmCmU*mU*mU*mU
B11: G000494: TTR sgRNA modified sequence, Human, SEQ ID NO: 101; guide sequence of CR003360 (nucleic acid)
guide: mG*mU*mG*rArGrUrCrUrGrGrArGrArGrCrUrGrCrArUrGrUrUrUrUrArGrAmGmCmUmAmGmAmAmAmUmAmGmCrArArGrUrUrArArArArUrArArGrGrCrUrArGrUrCrCrGrUrUrArUrCrAmAmCmUmUmGmAmAmAmAmAmGmUmGmGmCmAmCmCmGmAmGmUmCmGmGmUmGmCmU*mU*mU*mU
B12: G000484: TTR sgRNA modified sequence, Human, SEQ ID NO: 91; guide sequence of CR003367 (nucleic acid)
guide: mA*mG*mA*rCrArCrCrArArArUrCrUrUrArCrUrGrGrArGrUrUrUrUrArGrAmGmCmUmAmGmAmAmAmUmAmGmCrArArGrUrUrArArArArUrArArGrGrCrUrArGrUrCrCrGrUrUrArUrCrAmAmCmUmUmGmAmAmAmAmAmGmUmGmGmCmAmCmCmGmAmGmUmCmGmGmUmGmCmU*mU*mU*mU
B13: G000486: TTR sgRNA modified sequence, Human, SEQ ID NO: 93; guide sequence of CR003339 (nucleic acid)
guide: mA*mC*mA*rCrArArArUrArCrCrArGrUrCrCrArGrCrArGrUrUrUrUrArGrAmGmCmUmAmGmAmAmAmUmAmGmCrArArGrUrUrArArArArUrArArGrGrCrUrArGrUrCrCrGrUrUrArUrCrAmAmCmUmUmGmAmAmAmAmAmGmUmGmGmCmAmCmCmGmAmGmUmCmGmGmUmGmCmU*mU*mU*mU
B14: G000483: TTR sgRNA modified sequence, Human, SEQ ID NO: 90; guide sequence of CR005298 (nucleic acid)
guide: mU*mC*mC*rArCrUrCrArUrUrCrUrUrGrGrCrArGrGrArGrUrUrUrUrArGrAmGmCmUmAmGmAmAmAmUmAmGmCrArArGrUrUrArArArArUrArArGrGrCrUrArGrUrCrCrGrUrUrArUrCrAmAmCmUmUmGmAmAmAmAmAmGmUmGmGmCmAmCmCmGmAmGmUmCmGmGmUmGmCmU*mU*mU*mU

Legend:
[1] = test system: TTR mRNA; assay: TTR mRNA knockdown (quantitative PCR) in primary human hepatocytes treated with LNPs; format: cell-based; conditions: PHH, gRNA:mRNA 1:2, 96 h, vs untreated control
Description: In one experiment, PHH were cultured and treated with LNPs comprising Cas9 mRNA (SEQ ID NO:1) and a gRNA of interest (See FIG. 29, Table 36), as described in Example 4. The LNPs were prepared using the cross-flow procedure described above and purified and concentrated using PD-10 columns and Amicon centrifugal filter units, respectively. The LNPs were formulated with an N:P ratio of 6.0 and contained Lipid A, Cholesterol, DSPC, and PEG2k-DMG in a 50:38:9:2 molar ratio, respectively. The LNPs comprised a gRNA:mRNA ratio of 1:2, and the cells were treated at a dose of 300 ng (with respect to the amount of mRNA cargo delivered).
(§1) Ninety-six (96) hours following LNP treatment (with biological triplicates for each condition), mRNA was purified from PHH cells using the Dynabeads mRNA DIRECT Kit (ThermoFisher Scientific) according to the manufacturer's protocol. Reverse Transcription (RT) was performed with Maxima reverse transcriptase (ThermoFisher Scientific) and a poly-dT primer. The resulting cDNA was purified with Ampure XP Beads (Agencourt). For Quantitative PCR, 2% of the purified cDNA was amplified with Taqman Fast Advanced Mastermix and 3 Taqman probe sets, TTR (Assay ID: Hs00174914_m1), GAPDH (Assay ID: Hs02786624_g1), and PPIB (Assay ID: Hs00168719_m1). The assays were run on the QuantStudio 7 Flex Real Time PCR System according to the manufacturer's instructions (Life Technologies). Relative expression of TTR mRNA was calculated by normalizing to the endogenous controls (GAPDH and PPIB) individually, and then averaged.
The groups in FIG. 29 and Table 36 are identified by the gRNA ID used in each LNP preparation.
In a separate experiment, TTR mRNA knockdown was evaluated following treatment with LNPs comprising G000480, G000486, and G000502. The LNPs were formulated and PHH were cultured and treated with the LNPs, each as described in the experiment above in this Example with the exception that the cells were treated at a dose of 100 ng (with respect to the amount of mRNA cargo delivered).
as §1, with “(single treatment” for “(with biological triplicates”, “the High Capacity cDNA Reverse Transcription Kit” for “Maxima reverse transcriptase”, “according to the manufacturer's instructions.” for “and a poly-dT primer. The resulting cDNA was purified with Ampure XP Beads (Agencourt).”, “the” for “the purified”
The groups in FIG. 30 and Table 37 are identified by the gRNA ID used in each LNP preparation.

[2] = test system: potential off-target genomic sites; assay: Off-target analysis by oligo insertion based assay in primary human hepatocytes (sgRNAs); format: cell-based; conditions: 100 ng Cas9 mRNA, 25 nM sgRNA, 12.5 nM donor oligo, 48 h
Description: Off-target analysis of sgRNAs targeting TTR was performed in primary human hepatocytes (PHH) as described in Example 5, with the following modifications. PHH were plated at a density of 33,000 cells per well on collagen-coated 96-well plates as described in Example 1. Twenty-four hours post plating, cells were washed with media and transfected using Lipofectamine RNAiMAX (ThermoFisher, Cat. 13778150) as described in Example 1. Cells were transfected with a lipoplex containing 100 ng Cas9 mRNA, immediately followed by the addition of another lipoplex containing 25 nM of the sgRNA and 12.5 nM of the donor oligo (0.3 μL/well). Cells were lysed 48 hours post-transfection and gDNA was extracted and analyzed as further described in Example 5. The data is graphically represented in FIG. 20.
Fewer sites were detected in PHH for every guide tested as compared to the HekCas9 cell line, with no unique sites detected in PHH alone.

[3] = LNP dose 300 ng mRNA cargo, biological triplicates
[4] = LNP dose 100 ng mRNA cargo, single treatment

| Molecule | Avg % Knockdown (TTR mRNA) [1, 3] [%] | # Sites in PHH (off-target integration sites detected) [2] | Avg % Knockdown (TTR mRNA) [1, 4] [%] |
| --- | --- | --- | --- |
| B1 | 91.38 | 1 | – |
| B2 | 92.77 | 0 | – |
| B3 | 87.53 | 1 | – |
| B4 | 78.34 | 0 | – |
| B5 | 91.85 | 2 | – |
| B6 | 92.90 | 12 | – |
| B7 | 95.19 | 2 | 95.61 |
| B8 | – | – | 90.94 |
| B9 | 82.31 | 2 | – |
| B10 | 93.38 | 1 | – |
| B11 | 91.15 | 0 | – |
| B12 | 75.22 | 0 | – |
| B13 | – | 0 | 97.36 |
| B14 | 68.78 | 0 | – |
